The values that follow come from PMC8686788 (Science (New York, N.Y.), 2021).

Like-named read-outs stand apart in the source and are kept apart here.

Holding throughout (assay): fluorescence polarisation
The target of one experiment is T1, KaiC-EA (Synechococcus elongatus, UniProt Q79PF4 1-519, S431E (KaiC-EA) | T432A (KaiC-EA)).
T1 sequence (looked up): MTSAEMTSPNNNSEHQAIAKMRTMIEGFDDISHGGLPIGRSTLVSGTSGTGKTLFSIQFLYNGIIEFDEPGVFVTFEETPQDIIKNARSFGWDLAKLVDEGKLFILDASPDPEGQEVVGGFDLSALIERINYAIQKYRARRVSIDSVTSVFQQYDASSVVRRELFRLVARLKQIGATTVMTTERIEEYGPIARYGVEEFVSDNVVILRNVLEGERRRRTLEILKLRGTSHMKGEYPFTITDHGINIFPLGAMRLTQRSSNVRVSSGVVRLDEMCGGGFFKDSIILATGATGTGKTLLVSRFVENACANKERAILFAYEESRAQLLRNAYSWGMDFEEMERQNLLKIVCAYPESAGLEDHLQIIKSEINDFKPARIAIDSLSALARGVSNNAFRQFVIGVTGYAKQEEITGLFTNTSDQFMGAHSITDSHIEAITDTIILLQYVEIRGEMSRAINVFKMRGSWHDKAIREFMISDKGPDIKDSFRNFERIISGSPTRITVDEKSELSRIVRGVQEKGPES

Experiment [1] has as its target T2, KaiC (Synechococcus elongatus, UniProt Q79PF4 1-519).
T2 sequence (looked up): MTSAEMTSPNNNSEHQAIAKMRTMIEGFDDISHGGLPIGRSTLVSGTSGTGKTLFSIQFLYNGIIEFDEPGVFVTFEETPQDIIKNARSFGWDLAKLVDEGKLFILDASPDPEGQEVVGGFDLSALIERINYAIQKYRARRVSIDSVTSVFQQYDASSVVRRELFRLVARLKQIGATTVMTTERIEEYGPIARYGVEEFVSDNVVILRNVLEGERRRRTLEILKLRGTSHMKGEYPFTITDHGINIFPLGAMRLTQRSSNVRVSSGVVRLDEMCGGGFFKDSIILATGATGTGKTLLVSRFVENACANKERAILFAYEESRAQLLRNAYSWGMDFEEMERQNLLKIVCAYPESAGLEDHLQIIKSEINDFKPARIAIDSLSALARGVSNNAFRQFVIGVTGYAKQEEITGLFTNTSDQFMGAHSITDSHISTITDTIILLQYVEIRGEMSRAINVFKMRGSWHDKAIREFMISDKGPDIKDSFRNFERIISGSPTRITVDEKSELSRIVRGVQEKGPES

The target in experiment [2] is T3, circadian input kinase A, CikA (Synechococcus elongatus, UniProt Q9KHI5 1-754, fluorescent probe attached by sortase A-mediated ligation).
T3 sequence (looked up): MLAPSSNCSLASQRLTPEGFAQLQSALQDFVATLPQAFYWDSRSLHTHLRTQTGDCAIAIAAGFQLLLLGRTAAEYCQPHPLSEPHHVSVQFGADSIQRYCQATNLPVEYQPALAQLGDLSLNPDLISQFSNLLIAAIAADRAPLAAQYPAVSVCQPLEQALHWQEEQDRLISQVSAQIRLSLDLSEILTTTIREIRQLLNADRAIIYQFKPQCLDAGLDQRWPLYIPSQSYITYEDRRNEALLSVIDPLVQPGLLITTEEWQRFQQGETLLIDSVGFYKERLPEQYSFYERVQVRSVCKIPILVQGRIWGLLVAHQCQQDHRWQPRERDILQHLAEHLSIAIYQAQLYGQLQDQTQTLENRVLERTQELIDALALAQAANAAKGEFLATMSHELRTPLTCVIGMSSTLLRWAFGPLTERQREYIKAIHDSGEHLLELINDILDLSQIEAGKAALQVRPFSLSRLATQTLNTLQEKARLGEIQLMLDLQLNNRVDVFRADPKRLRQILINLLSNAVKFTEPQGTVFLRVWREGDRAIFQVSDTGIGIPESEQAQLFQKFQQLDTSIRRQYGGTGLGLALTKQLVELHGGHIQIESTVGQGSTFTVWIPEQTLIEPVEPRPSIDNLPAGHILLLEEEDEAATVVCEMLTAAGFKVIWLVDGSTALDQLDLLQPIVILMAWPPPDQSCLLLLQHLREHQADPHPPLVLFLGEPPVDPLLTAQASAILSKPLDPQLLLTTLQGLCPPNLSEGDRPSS

Experiment [3] deals with T2, KaiC. This is another data set of the same source.

B1: KaiB (natural protein, Synechococcus elongatus, UniProt Q79PF5 1-102, looked up)
chain: MSPRKTYILKLYVAGNTPNSVRALKTLKNILEVEFQGVYALKVIDVLKNPQLAEEDKILATPTLAKVLPLPVRRIIGDLSDREKVLIGLDLLYGELQDSDDF
modifications: fluorescent probe attached by sortase A-mediated ligation
As to B1, the binding result with KaiC-EA and in the experiment with KaiC [1] was “binds” in each case.

B2: KaiB-KaiC complex (complex, Synechococcus elongatus)
chain 1: MSPRKTYILKLYVAGNTPNSVRALKTLKNILEVEFQGVYALKVIDVLKNPQLAEEDKILATPTLAKVLPLPVRRIIGDLSDREKVLIGLDLLYGELQDSDDF
chain 2: MTSAEMTSPNNNSEHQAIAKMRTMIEGFDDISHGGLPIGRSTLVSGTSGTGKTLFSIQFLYNGIIEFDEPGVFVTFEETPQDIIKNARSFGWDLAKLVDEGKLFILDASPDPEGQEVVGGFDLSALIERINYAIQKYRARRVSIDSVTSVFQQYDASSVVRRELFRLVARLKQIGATTVMTTERIEEYGPIARYGVEEFVSDNVVILRNVLEGERRRRTLEILKLRGTSHMKGEYPFTITDHGINIFPLGAMRLTQRSSNVRVSSGVVRLDEMCGGGFFKDSIILATGATGTGKTLLVSRFVENACANKERAILFAYEESRAQLLRNAYSWGMDFEEMERQNLLKIVCAYPESAGLEDHLQIIKSEINDFKPARIAIDSLSALARGVSNNAFRQFVIGVTGYAKQEEITGLFTNTSDQFMGAHSITDSHISTITDTIILLQYVEIRGEMSRAINVFKMRGSWHDKAIREFMISDKGPDIKDSFRNFERIISGSPTRITVDEKSELSRIVRGVQEKGPES
For B2, in experiment [2], the binding result is recorded as “binds”.

B3: KaiA (natural protein, Synechococcus elongatus, UniProt Q79PF6 1-284, looked up)
chain: MLSQIAICIWVESTAILQDCQRALSADRYQLQVCESGEMLLEYAQTHRDQIDCLILVAANPSFRAVVQQLCFEGVVVPAIVVGDRDSEDPDEPAKEQLYHSAELHLGIHQLEQLPYQVDAALAEFLRLAPVETMADHIMLMGANHDPELSSQQRDLAQRLQERLGYLGVYYKRDPDRFLRNLPAYESQKLHQAMQTSYREIVLSYFSPNSNLNQSIDNFVNMAFFADVPVTKVVEIHMELMDEFAKKLRVEGRSEDILLDYRLTLIDVIAHLCEMYRRSIPRET
modifications: fluorescent probe attached by sortase A-mediated ligation
Consider B3, for which the binding result in the experiment with KaiC [1] is reported as “binds”.

B4: SasA-H28A-Q94A (enzyme, Synechococcus elongatus, UniProt Q06904 1-387, looked up)
chain: MGESLSPQALAQPLLLQLFVDTRPLSQAIVQRVKNILAAVEATVPISLQVINVADQPQLVEYYRLVVTPALVKIGPGSRQVLSGIDLTDQLANALPQWLVQQEAFFADREPPEVNIPFTELGQPETPALQQADAFFQLQQQYADLSERTKFLEQVIALVAHDLRNPLTAALLAVDTIQIRSQSFSVATAKEMQGLCSLFDQARSQLREIERMIAEILEATRHSGESLRINPREVVFEPLLQQVLEQLHERWRSKQQQLITDVPGDLPTLYADPDRLRQVLVNLLDNAIKYTPPGGTITIAALHRTSQKVQISISDTGSGIPRDQLSVIFKNLVRLSRDSSQEGYGIGLSVCQRIVQAHFGRIWVASELGQGSTFHFTMPVYRYTMPC
Take B4: the binding result with KaiC [3] is recorded as “binds”.
